Assay results taken from patent publication US20250179215A1, “PLASMIN-BINDING VHHS” (RHEINISCHE FRIEDRICH-WILHELMS-UNIVERSITÄT BONN, priority 2022, published 2025).
“Also recorded” adds a separate entry of the source.

Columns and labels:
[1] = target: human plasmin (human, UniProt P00747 97-580; P00747 581-810); experiment: cell-based or functional assay
[2] = system: citrate-anticoagulated whole blood; experiment: Rotational thrombelastometry clot lysis in tPA-spiked whole blood; format: biochemical; settings: for lysis index at 60 min: concentrations above 1.2 μM, decrease from 65%; for lysis index at 60 min / lysis onset time: tPA 0.5 μg/ml; for lysis onset time: reduced from 47.2 min
From the text: To further test the fibrinolysis-activating properties of VHHs in an ex-vivo model of hyperfibrinolysis, a whole blood based assay can be used whereat citrate-anticoagulated whole blood in the presence of VHHs is spiked with tPA and clot formation and the fibrinolysis rate of the formed clot monitored by thrombelastometry after initiation of clotting by addition of CaCl2) solution containing recombinant TF.
FIG. 4. Influence of VHHs on endogenous fibrinolysis. (A) Citrate-anticoagulated whole blood was mixed with VHHs A11 or C5 and with tPA to achieve a final concentration of 0.5 μg/ml and clot formation was induced by addition of CaCl2) (0.2 M). (B) Lysis index at 60 min(C) Maximum lysis rates, and (D) lysis onset time were recorded. Mean values and SD were calculated out of three measurements.
(§1) The impact of VHHs on the fibrinolytic activity in plasma and whole blood was monitored using rotational thrombelastometry using the ROTEM delta system (TEM Innovations Ltd., Munich, Germany). […] After addition of 0.1 μg/ml tPA, coagulation was initiated by addition of recombinant tissue factor (Dade Innovin, Siemens Healthcare, Marburg, Germany) dissolved 1:100 in calcium chloride (0.2 M). The viscoelasticity of the formed clot was measured in terms of key parameters including clotting time, maximal clot firmness, maximum clot elasticity, maximum lysis, lysis index after 60 minutes, and lysis onset time.

[3] = system: citrate-anticoagulated pooled normal human plasma; experiment: Rotational thrombelastometry clot formation parameters in plasma; format: biochemical; settings: VHHs or BPTI 2.4 μM, TXA 2.4 μg/ml; tPA 0.1 μg/ml
Experimental: FIG. 10. The impact of VHHs on the clot formation parameters in plasma monitored by rotational thrombelastometry. […] After addition of tPA to reach a final concentration of 0.1 μg/ml, coagulation was initiated by addition of recombinant tissue factor (Dade® Innovin®) dissolved 1:100 in calcium chloride solution (0.2 M). The viscoelasticity of the formed clot was measured in terms of (A) clotting time, (B) maximum clot firmness, and (C) maximum clot elasticity. A non-binder VHH (GFP-enhancer VHH) was used as negative control. Mean values and SD were calculated out of three measurements.
as §1

[4] = target: T1, plasmin (Homo sapiens, UniProt P00747); experiment: Michaelis-Menten kinetics of plasmin-mediated cleavage of fluorogenic peptide substrate; format: biochemical; settings: plasmin 5 nM; VHHs 1 μM, BPTI 3 nM, TXA 7.86 mg/ml; w/o ligand 51.8
T1 construct: human Lys-plasmin which is prepared from homogeneous Glu-plasminogen using uPA; purchased Haematologic Technologies, Inc. (Essex Junction, VT)
Experimental: Subsequently, 50 μl of the fluorogenic substrate (3.16-3,160 μM final concentration in assay buffer) was added. Substrate hydrolysis rates were monitored by kinetic measurements using the Synergy 2 microplate reader. Apparent Michaelis-Menten constants (Km) and the turn-over number (kcat) values for substrate hydrolysis were calculated from best fit values of the Michaelis-Menten equation and the catalytic efficiencies were expressed as ratios of kcat/Km.
CI, confidence interval. ^a The turnover number (kcat) was calculated using Vmax values extracted from Michaelis-Menten least squares fit.

[5] = target: T1, plasmin; experiment: Activated factor V-inactivation assay (prothrombinase assay); format: biochemical; settings: for FVa inactivation by plasmin reduced to % of normal: summary statement, concentration not given; for FVa inactivation rate reduced to: plasmin 1.5 nM, rate without VHH = 100%
Experimental: FIG. 6. (A) Influence of VHHs on plasmin-mediated FVa cleavage. Plasmin (1.5 nM) was incubated with increasing concentrations of VHHs for 30 min at 37° C. After addition of FVa (30 pM) and further incubation for 30 min, FXa (0.52 pM), prothrombin (10 nM) and a fluorogenic thrombin substrate (100 μM) were added and the FVa-dependent thrombin generation was measured. The FVa inactivation rate measured in the absence of VHHs or plasmin inhibitors was set as 100%. […] The data are presented as mean±SD of two independent measurements.
Plasmin-mediated inactivation of activated factor V (FVa) was measured using a prothrombinase assay as recently described (Hamedani 2020). Briefly, 1.5 nM plasmin in assay buffer (20 mM Tris-HCl, 137 mM NaCl, 10 mg/ml phospholipids, 5 mM CaCl2, 1 mg/ml BSA, pH 7.4) was preincubated with VHHs (0.1 nM-10 μM final concentrations) for 30 min at 37° C. Then, 60 μl of the mixture were mixed with 60 μl of […] FVa. After further incubation for 30 min, 25 μl of the reaction mixture were mixed with 50 μl of 1.3 μM human FXa and 100 μM fluorogenic thrombin substrate (Boc-Asp(OBzl)-Pro-Arg-AMC) and 50 μl of 10 nM human prothrombin. Thrombin catalyzed substrate hydrolysis was monitored at λex of 360 nm and λem of 460 nm using the Synergy 2 microplate reader.

[6] = target: T2, plasminogen (Homo sapiens, UniProt P00747); experiment: Plasmin generation assay (tPA-mediated plasminogen activation, purified system); format: biochemical; settings: for inhibition of plasmin generation at higher concentrations: at the assessed / higher concentrations; for EC50: plasminogen 10 nM, tPA 10 nM, read-out: EC50 of tPA-induced plasmin generation
T2 construct: Plasma derived human Glu-plasminogen; purchased Haematologic Technologies, Inc. (plasminogen); Boehringer Ingelheim (tPA)
Experimental: In order to assess the influence of VHHs on tPA-mediated plasminogen activation, plasminogen was preincubated with increasing concentrations of VHHs. After addition of tPA, plasmin generation was measured over time using a fluorogenic plasmin peptide substrate.
FIG. 5. Influence of VHHs on tPA-mediated plasminogen activation. […] After addition of tPA (10 nM final concentration) plasmin generation was measured over time using the fluorogenic plasmin assay. The data are presented as mean±SD of three independent measurements.
Plasminogen (50 nM) was incubated with VHHs (2 μM to 0.2 μM) for 30 min at 37° C. in assay buffer. Subsequently, 20 μl of 50 nM tPA was added to the mixture and incubated at 37° C. After 3 hours of incubation at 37° C., 50 μl of the mixture were transferred to the wells of black F16 Fluoronunc modules and after addition of 50 μl of the plasmin-specific fluorogenic substrate (800 μM) fluorescence intensities were measured at λex of 360 nm and λem of 460 nm using the Synergy 2 microplate reader.

[7] = target: T1, plasmin; experiment: VHHs competition ELISA (plasmin binding to immobilized VHH); settings: free VHH vs immobilized VHH; plasmin 10 nM
Experimental: FIG. 2. VHHs competition ELISA. The VHH (A) A11 or (B) C5 was immobilized in the microtiter plate by overnight incubation of 10 μg/ml VHH in 100 μl of coating buffer. […] Data represent the mean±SD of two measurements.
To assess the competition of VHHs for similar or overlapping binding sites on the plasmin molecule, a competition ELISA was performed. Microtiter (96-well) plates were coated with VHHs (10 μg/ml in coating buffer, 100 μl/well) at 2-8° C. overnight. Wells were washed and non-specific protein-binding sites were blocked with 20 mg/ml bovine serum albumine (BSA) for 2 h at RT. After removing the blocking buffer, wells were overlaid with a reaction mixture containing plasmin (10 nM) and VHHs (0.316 nM-31.6 μM) in buffer (20 mM HEPES, 154 mM NaCl, BSA 1 mg/ml, pH 7.4) for 30 min at RT. After washing the amount of bound plasmin was quantified through hydrolysis rates of the fluorogenic plasmin substrate (300 μM, 100 μl/well). The fluorescence intensity measured in the absence of free VHHs was set as 100%.

[8] = target: Ocriplasmin (Homo sapiens, UniProt P00747); experiment: Biolayer Interferometry (BLI) binding of VHHs to ocriplasmin (miniplasmin); settings: HIS-tagged VHH on biosensor
Experimental: (§2) VHHs binding affinities to human and mouse plasminogen/plasmin were assessed according to Biolayer Interferometry (BLI) using the BLItz system (Pall Life Sciences, Dreieich, Germany) and the Blitz 1.2 software package (Hamedani 2016). […] Afterward, the biosensor was lowered into a tube containing 500 μl of binding buffer to determine kd and koff. All measurements were performed at a shaking speed of 2,200 rpm.

[9] = target: T1, plasmin; experiment: Biolayer Interferometry (BLI) binding of VHHs to human plasmin; settings: HIS-tagged VHH on biosensor
Experimental: as §2

[10] = target: T3, tPA (Homo sapiens, UniProt P00750); experiment: Biolayer Interferometry (BLI) binding of VHHs to tPA; settings: HIS-tagged VHH on biosensor
T3 construct: purchased Boehringer Ingelheim (Biberach, Germany) Actilyse

[11] = target: T1, plasmin; experiment: Influence on catalytic activity of plasmin with fluorogenic peptide substrate; format: biochemical; settings: plasmin 5 nM; for increase in substrate conversion: at molar ratios of VHHs over plasmin of 158 (A11) and 500 (C5)
Experimental: FIG. 3. Effect of plasmin VHHs on the catalytic activity of plasmin for peptide substrates. […] Mean values and SD were calculated out of three measurements.
After incubation, 50 μl of the mixtures were transferred to the wells of black F16 Fluoronunc modules (Thermo Fisher Scientific [Nunc]). Subsequently, 50 μl of 800 μM PLM-specific fluorogenic peptide substrate in the assay buffer (H-Ala-Phe-Lys-AMC, Bachem) was added to the wells and the kinetics of plasmin-mediated substrate hydrolysis was monitored using the Synergy 2 microplate reader.

[12] = target: T4, mouse plasminogen (Mus musculus, UniProt P20918); experiment: Biolayer Interferometry (BLI) binding of VHHs to mouse plasminogen; settings: HIS-tagged VHH on biosensor
T4 construct: mouse Glu-plasminogen, mouse plasmin; purchased Haematologic Technologies, Inc. (Essex Junction, VT)
Experimental: as §2

T2 sequence (P00747 20-810 limits assumed): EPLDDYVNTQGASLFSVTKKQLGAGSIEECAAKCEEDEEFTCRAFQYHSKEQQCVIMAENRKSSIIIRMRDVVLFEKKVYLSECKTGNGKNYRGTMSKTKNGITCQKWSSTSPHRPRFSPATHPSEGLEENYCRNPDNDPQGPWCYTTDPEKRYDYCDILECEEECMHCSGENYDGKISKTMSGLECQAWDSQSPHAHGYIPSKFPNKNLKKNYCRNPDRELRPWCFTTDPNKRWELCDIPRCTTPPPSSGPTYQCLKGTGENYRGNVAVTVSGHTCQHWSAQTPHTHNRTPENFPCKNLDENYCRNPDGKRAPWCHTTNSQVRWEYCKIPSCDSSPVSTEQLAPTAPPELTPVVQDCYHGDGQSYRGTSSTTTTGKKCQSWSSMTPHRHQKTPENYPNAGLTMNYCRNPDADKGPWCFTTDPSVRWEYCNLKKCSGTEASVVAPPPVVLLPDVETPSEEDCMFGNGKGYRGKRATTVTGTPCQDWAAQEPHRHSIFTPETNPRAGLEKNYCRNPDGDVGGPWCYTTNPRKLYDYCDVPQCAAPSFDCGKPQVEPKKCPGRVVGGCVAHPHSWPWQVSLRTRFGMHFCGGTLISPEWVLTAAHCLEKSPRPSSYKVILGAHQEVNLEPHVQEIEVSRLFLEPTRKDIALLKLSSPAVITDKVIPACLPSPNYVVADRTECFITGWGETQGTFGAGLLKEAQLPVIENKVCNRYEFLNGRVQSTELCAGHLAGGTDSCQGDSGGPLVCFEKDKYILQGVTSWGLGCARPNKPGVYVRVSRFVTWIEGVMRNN
Chain of Ocriplasmin (P00747 581-810 limits assumed, other chains not shown): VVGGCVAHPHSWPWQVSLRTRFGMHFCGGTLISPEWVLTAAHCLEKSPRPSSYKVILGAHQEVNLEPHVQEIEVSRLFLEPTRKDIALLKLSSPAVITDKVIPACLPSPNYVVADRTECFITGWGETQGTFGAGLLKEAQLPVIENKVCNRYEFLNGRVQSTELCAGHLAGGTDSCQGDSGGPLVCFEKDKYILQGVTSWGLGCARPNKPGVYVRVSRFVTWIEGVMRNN
T1 sequence (P00747 97-580 limits assumed): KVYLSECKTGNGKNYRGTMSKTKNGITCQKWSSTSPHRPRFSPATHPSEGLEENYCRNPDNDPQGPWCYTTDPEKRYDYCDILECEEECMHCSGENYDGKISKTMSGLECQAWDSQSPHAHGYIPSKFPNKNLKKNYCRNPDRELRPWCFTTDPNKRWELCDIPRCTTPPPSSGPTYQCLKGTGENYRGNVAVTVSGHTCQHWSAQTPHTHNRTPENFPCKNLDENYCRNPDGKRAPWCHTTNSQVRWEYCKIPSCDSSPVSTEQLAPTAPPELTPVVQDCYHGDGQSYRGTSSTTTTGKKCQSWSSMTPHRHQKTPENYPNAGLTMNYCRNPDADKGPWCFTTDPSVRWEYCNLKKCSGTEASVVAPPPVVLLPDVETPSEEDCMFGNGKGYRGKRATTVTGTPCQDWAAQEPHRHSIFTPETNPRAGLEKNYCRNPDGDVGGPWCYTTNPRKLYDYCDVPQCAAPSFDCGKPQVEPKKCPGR
T1 sequence (P00747 581-810 limits assumed): as the sequence (P00747 581-810 limits assumed, other chains not shown) above
T4 sequence (P20918 20-812 limits assumed): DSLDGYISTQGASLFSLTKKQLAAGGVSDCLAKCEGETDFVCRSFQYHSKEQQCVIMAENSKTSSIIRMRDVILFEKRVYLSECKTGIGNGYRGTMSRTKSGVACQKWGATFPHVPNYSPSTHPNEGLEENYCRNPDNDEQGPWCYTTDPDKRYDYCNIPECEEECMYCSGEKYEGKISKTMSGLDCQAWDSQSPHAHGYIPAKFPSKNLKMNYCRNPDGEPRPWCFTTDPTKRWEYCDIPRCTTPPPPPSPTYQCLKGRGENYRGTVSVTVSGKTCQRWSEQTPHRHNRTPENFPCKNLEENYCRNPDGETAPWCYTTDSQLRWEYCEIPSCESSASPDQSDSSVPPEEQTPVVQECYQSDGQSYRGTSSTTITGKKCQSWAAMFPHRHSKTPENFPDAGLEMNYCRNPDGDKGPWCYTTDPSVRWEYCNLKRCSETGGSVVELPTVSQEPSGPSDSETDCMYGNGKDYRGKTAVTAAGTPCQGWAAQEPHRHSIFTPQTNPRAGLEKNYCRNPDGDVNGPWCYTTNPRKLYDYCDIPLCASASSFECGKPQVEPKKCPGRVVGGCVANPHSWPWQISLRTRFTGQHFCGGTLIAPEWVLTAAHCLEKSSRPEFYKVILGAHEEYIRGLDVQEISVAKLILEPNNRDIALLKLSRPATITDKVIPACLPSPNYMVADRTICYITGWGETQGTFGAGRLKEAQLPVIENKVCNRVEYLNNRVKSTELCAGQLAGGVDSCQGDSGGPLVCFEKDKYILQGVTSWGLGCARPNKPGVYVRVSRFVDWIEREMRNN
T3 sequence (P00750 36-562): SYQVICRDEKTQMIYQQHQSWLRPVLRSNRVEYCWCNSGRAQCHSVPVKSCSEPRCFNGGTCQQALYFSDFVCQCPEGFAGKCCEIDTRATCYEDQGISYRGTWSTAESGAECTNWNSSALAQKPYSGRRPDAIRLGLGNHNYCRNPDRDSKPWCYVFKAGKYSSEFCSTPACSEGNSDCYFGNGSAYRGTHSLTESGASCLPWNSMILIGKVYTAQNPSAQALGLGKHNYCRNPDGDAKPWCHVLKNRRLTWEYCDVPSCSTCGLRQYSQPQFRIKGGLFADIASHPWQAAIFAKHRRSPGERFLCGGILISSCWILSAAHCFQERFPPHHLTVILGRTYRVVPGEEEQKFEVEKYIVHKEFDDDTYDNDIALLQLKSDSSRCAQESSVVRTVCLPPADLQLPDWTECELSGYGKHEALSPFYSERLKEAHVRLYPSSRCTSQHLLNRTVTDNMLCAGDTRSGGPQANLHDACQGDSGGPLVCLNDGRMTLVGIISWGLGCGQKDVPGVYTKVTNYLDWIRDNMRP
Chain of human plasmin (P00747 97-580 limits assumed, chain 1 of 2): as the sequence (P00747 97-580 limits assumed) above
Chain of human plasmin (P00747 581-810 limits assumed, chain 2 of 2): as the sequence (P00747 581-810 limits assumed, other chains not shown) above

Molecule	kcat × 10^3 (s^−1) mean (95% CI) [4]	FVa inactivation by plasmin reduced to % of normal [5] [%]	inhibition of plasmin generation at higher concentrations [6]	EC50 [6] [nM]	lysis index at 60 min [2] [%]	lysis onset time [2] [min]	competition of VHHs for binding site on plasmin molecule [7]	kD human plasmin [9]	kD tPA [10]	increase in substrate conversion [11]	kD mouse plasminogen [12]	also measured
human alpha2-antiplasmin (from UniProt P08697 40-491)												residual plasmin activity after incubation with α2AP [1]: < 0.1%
Aprotinin [BPTI, reference compound]	29.6 (29-30) s^−1	20										effect on lysis compared to VHHs (FIG. 4C, maximum lysis rates) ([2]; tPA-spiked whole blood): inhibition of lysis; effect on fibrin clot formation parameters (clotting time, maximum clot firmness, maximum clot elasticity) [3]: does not affect; maximal inhibition rate of plasmin-mediated cleavage of FVa ([5]; BPTI 10 μM): 26%
VHH C5: Plasmin-binding alpaca VHH; variable domain SEQ ID NO: 10, or 20 with C-terminal His6-tag; CDRs SEQ ID NO: 4-6 (protein, C5 VHH) VHH: QVQLVESGGGLVQAGGSLRLSCAASGRRFMVVAMGWYRQAPGNQRELVASITNGGTTNYAGSVKGRFTISGDSAKNTVYLHMNSLKPEDTAVYYCTTDVVFRDGNGQIQSNWGQGTQVTVSS	69.9 (68-72) s^−1	80	no inhibitory effect	2.3	0	13.8	competed for the same or overlapping binding site	low nanomolar range	weak binding	approx. 2.5 fold	no reactivity	kD Ocriplasmin ([8]; listed as C5): None of these VHHs bind and n.b.; FVa inactivation rate reduced to ([5]; C5 concentration of 3.16 nM or higher): 78%
VHH A11: Plasmin-binding alpaca VHH; variable domain SEQ ID NO: 9, or 11 with C-terminal His6-tag; CDRs SEQ ID NO: 1-3 (protein, A11 VHH) VHH: QVQLVETGGGLVQAGGSLRLSCAASGNIFSINAMDWYRQAPGKERELVAAITSGGTTNYADSVKGRFTISRDNAKDTVYLQMNSLKPEDAAFYYCNADGYYSDYDKNLAEFNSWGQGTQVTVSS	67.2 (65-70) s^−1		no inhibitory effect	0.93	0	10.3	competed for the same or overlapping binding site	low nanomolar range	weak binding	approx. 2.5 fold	no reactivity	kD Ocriplasmin ([8]; listed as A11): None of these VHHs bind; also recorded: n.b.*; FVa inactivation rate reduced to ([5]; A11 concentrations above 10^-9 M): 60%; FVa inactivation by plasmin reduced to % of normal ([5]; listed as A11): 60%; molar ratio of VHHs over plasmin at which approx. 2.5-fold increase in substrate conversion was achieved ([11]; H-Ala-Phe-Lys-AMC): 158
